{"source": "paper doi:10.1101/2022.03.25.485784", "about": "(bioRxiv, 2022)", "proteins": {"B1": {"name": "dtSARM1, the full-length SARM1 with the N-terminal 27-aa segment replaced by a twin-Strep and Flag-tag (enzyme)", "chain": "LAVPGPDGGGGTGPWWAAGGRGPREVSPGAGTEVQDALERALPELQQALSALKQAGGARAVGAGLAEVFQLVEEAWLLPAVGREVAQGLCDAIRLDGGLDLLLRLLQAPELETRVQAARLLEQILVAENRDRVARIGLGVILNLAKEREPVELARSVAGILEHMFKHSEETCQRLVAAGGLDAVLYWCRRTDPALLRHCALALGNCALHGGQAVQRRMVEKRAAEWLFPLAFSKEDELLRLHACLAVAVLATNKEVEREVERSGTLALVEPLVASLDPGRFARCLVDASDTSQGRGPDDLQRLVPLLDSNRLEAQCIGAFYLCAEAAIKSLQGKTKVFSDIGAIQSLKRLVSYSTNGTKSALAKRALRLLGEEVPRPILPSVPSWKEAEVQTWLQQIGFSKYCESFREQQVDGDLLLRLTEEELQTDLGMKSGITRKRFFRELTELKTFANYSTCDRSNLADWLGSLDPRFRQYTYGLVSCGLDRSLLHRVSEQQLLEDCGIHLGVHRARILTAAREMLHSPLPCTGGKPSGDTPDVFISYRRNSGSQLASLLKVHLQLHGFSVFIDVEKLEAGKFEDKLIQSVMGARNFVLVLSPGALDKCMQDHDCKDWVHKEIVTALSCGKNIVPIIDGFEWPEPQVLPEDMQAVLTFNGIKWSHEYQEATIEKIIRFLQGRSSRDSSAGSDTSLEGAAPMGPT"}}, "target": "the molecule itself", "test": "cryo-EM structure", "data": [{"protein": "B1", "values": [{"measurement": "stoichiometry N", "result": 8}]}]}
